The source of these data is patent US20240301023A1.

The target of one test is Mu opioid receptor (MOR). Briefly: cell-based or functional assay.
Test [1] addresses Kappa opioid receptor (KOR) (Homo sapiens (Human)) (UniProt P41145). Kind of test: cell-based or functional assay.
For test [2], the target named is Delta opioid receptor (DOR). Briefly: cell-based or functional assay.
Test [3] concerns the target Kappa opioid receptor (KOR) (Homo sapiens (Human)) (UniProt P41145). Kind of test: HTRF Tag-Lite KOP ligand binding assay; competition against naltrindole (8 nM).
Test [4] has the same target. Kind of test: HTRF Tag-Lite KOP ligand binding assay; competition against naltrindole (8 nM); Ki relative to Kd of naltrindole.

As for “Dyn1-7 (SEQ ID NO. 38: Tyr-Gly-Gly-Phe-Leu-Arg-Arg) (peptide)”, the Activity (EC50, nM), cAMP assay with Mu opioid receptor (MOR) came out at 3740 nM; in test [1], 1600 nM; in test [2] it was 870 nM.
In test [3], “SEQ ID NO. 4: NH2-Tyr-Sar-(4-NO2)Phe-Leu-Arg-DArg-NH2 (peptide)” registered a 50% inhibitory concentration (IC50) of 30.2 nM and a Log IC50 of -7.52. In test [1], this substance showed an Activity (EC50, nM), cAMP assay of 8.4 nM; a cAMP assay (ALPHAScreen), result at 1 µM peptide of 34.9; a cAMP assay (ALPHAScreen), result at 10 µM peptide of 40.3. This substance gave a Ki in test [4] of 2.8 nM.
“SEQ ID NO. 18: NH2-Tyr-Sar-(4-NO2)Phe-Leu-Arg-NMA-NH2 (peptide)”: in test [1], the Activity (EC50, nM), cAMP assay is 1.77 nM.
In test [3], “SEQ ID NO. 19: NH2-Tyr-Sar-(4-NO2)Phe-Leu-NMA-NMA-NH2 (peptide)” yielded an IC50 of 1950 nM and a Log IC50 of -5.71. In test [1], this substance returned an Activity (EC50, nM), cAMP assay of 31.1 nM. This substance also came in with a Ki in test [4] of 180 nM.
As to “SEQ ID NO. 20: NH2-Tyr-Sar-(4-Cl)Phe-Leu-Arg-DArg-Ile-Arg-NH2 (peptide)”, the KOPr desensitisation in HEK293-KOPr cells: reduction in maximal cAMP response after 6 h pretreatment at 1 µM in test [1] came to 50%.
For “SEQ ID NO. 24: NH2-Tyr-Sar-(4-Cl)Phe-Leu-Arg-DArg-C7H14-CONH2 (peptide)”, in test [3], the half-inhibitory concentration (IC50) came to 72.6 nM and the Log IC50 was -7.14. The Activity (EC50, nM), cAMP assay in test [1] came out at 3.87 nM. This substance gave a Ki in test [4] of 6.7 nM.
